The DeepSol protein solubility set

assay: soluble on expression in E. coli; label from the status in PepcDB or PDB records

Row | Sequence | soluble on expression in E. coli
1 | MGSDKIHHHHHHACTGLLVGKKASTDGSVMISYAADSHSLYGEMYRWPAATWPKGAMLEVKEWDTGKPLGKIAQVENTYSVVGNMNEHQVAITESTFGGRHELVDTTGIMDYGSLIYIALQRSKSAREAIKVMTDLVKEYGYYSSGETFSIADKNEAWVMEMIGKGPGNKGAVWVAIRIPDDCISAHANQSRIQQIPFDDKENCIYSPDVVSFAREKGYFKGKDADFSFAKAYCPYDFSALRGCEARVWSFFRKYDTTMDQYTDFIKGDPSKEPMPLYVKPNRKLSVQDVQNGMRDHYEGTDLDMTKDAGAGSYKVPYRWRPMTFEVDGQEYTNERAIATQQTGFVIVPQMRNWLPDAIGGILWFAVDDADMAVFTPVYASVTDVPECYRVGNGDLLNFSWTSAFWIHNWVANMAYHKYSFMIQDIRKVQQELENGYQETVPAIDKAAQELYAKDPAETVKFLTWYSTTNSDSATARWKQLGEYLLVKYIDGNVKKEVNGQFKRNPYGQPASPDFPGYDEDYYRSIVKSAGDRLKVK | not soluble
2 | MGSSHHHHHHGGTGENLYFQGGSGMADERFDSMLLAIAQQQQGIDGILDTFFSFLNRKTDFFTQPDMARRSVQQAMSRYLAEAEEKQRKAKEAQAAAQQQQQQQQQSARTSSRVEVLESEEEVNAVAAAQAAEEAAQRKQELERAQREVAEAKAKKEAAGNEAETGATEAFADTGDAPRGLPPTAANGFAYEKYIFSQSLQEAEVRVPLPAVNVKGKQVSIVITSSHLTVGMKGQPPIVDGDLYSKVRAEECMWTIEDGHTVVVTLYKVNSMEWWKTIFQGDPEIDLQKVIPENSKLDDLDSDTRQTVEKMMYDQRQKMMGKPTSDEQKKQDMLRKFMEAHPEMDFSQAKFC | soluble
3 | MGSSHHHHHHSSGLVPRGSHMRPHGDTAKKPIIGILMQKCRNKVMKNYGRYYIAASYVKYLESAGARVVPVRLDLTEKDYEILFKSINGILFPGGSVDLRRSDYAKVAKIFYNLSIQSFDDGDYFPVWGTCLGFEELSLLISGECLLTATDTVDVAMPLNFTGGQLHSRMFQNFPTELLLSLAVEPLTANFHKWSLSVKNFTMNEKLKKFFNVLTTNTDGKIEFISTMEGYKYPVYGVQWHPEKAPYEWKNLDGISHAPNAVKTAFYLAEFFVNEARKNNHHFKSESEEEKALIYQFSPIYTGNISSFQQCYIFD | soluble
4 | MAHHHHHHMGTLEAQTQGPGSMLNKRKFYINGLWDDPSTPHDLYVIDPSTEEACAVISLGSTRDADKAINAAKKAFQTWKTTSPHERLGFVEKILEIYEKRSSDMAKTISMEMGAPIDMALNAQTATGSSHIRNFIKAYKEFSFQEALIEGNEQAILHYDAIGVVGLITPWNWPMNQVTLKVIPALLAGCTMVLKPSEIAPLSAMLFAEILDEAALPSGVFNLINGDGANVGSYLSAHPDLEMISFTGSTRAGKDISKNASNTLKRVCLELGGKGANIIFADADIDALQRGVRHCFYNSGQSCNAPTRMLVEQAIYDKAIKTAKDIAEKTQVGPGHQTGNHIGPVVSKEQYDKIQDLIQSGIDEGATLVTGGTGLPMGMERGYYVRPTVFADVKPHMRIFREEIFGPVLSLLPFNTEDEAVTLANDTEYGLTNYIQSQDRSKCRRIAAQVRSGMVEVNGHELPGGSYFGGVKFSGRAREGGLWGIKEFLDTKAISYW | soluble
5 | SPMAVEEVIEMQGLSLDPTSHRVMAGEEPLEMGPTEFKLLHFFMTHPERVYSREQLLNHVWGTNVYVEDRTVDVHIRRLRKALEPGGHDRMVQTVRGTGYRFSTRF | soluble
6 | MSLKILYISQEIFPYLPETDISVVSRKLPQTIQERGNEVRIFMPRYGIINERRNQLHEVIRLSGINMIINDNDHPLIIKVASIQSARMQVYFIDNDDFFKRKTMYDIKPKQENDNDERAIFFVRGALEAIKKLRWIPDVIHCHGWFTALAALYLKKMYADDPCLQKAKVVYSVYDDAGQGVIPETLFGKLGFDKITPDDLSVMEQSSDYLALNRLAIRYADGVIQGSETIAPELTDYISSLEGKAFLPYQGKEDYEEAFDNFYSDLLTANEGHHHHHH | soluble
7 | MRSLISSLDLTREEVEEILKYAKEFKEGKEETIKASAVLFFSEPSTRTRLSFEKAARELGIETYLVSGSESSTVKGESFFDTLKTFEGLGFDYVVFRVPFVFFPYKEIVKSLNLRLVNAGDGTHQHPSQGLIDFFTIKEHFGEVKDLRVLYVGDIKHSRVFRSGAPLLNMFGAKIGVCGPKTLIPRDVEVFKVDVFDDVDKGIDWADVVIWLRLQKERQKENYIPSESSYFKQFGLTKERFEKVKLYMHPGPVNRNVDIDHELVYTEKSLIQEQVKNGIPVRKAIYKFLWT | soluble
